Assay results as given in patent US20180193452A1.

Target: wild type CAR (WT CAR): human FcεRIα extracellular domain fused to CD3ζ (human)
Sequence (chain, as listed by the source): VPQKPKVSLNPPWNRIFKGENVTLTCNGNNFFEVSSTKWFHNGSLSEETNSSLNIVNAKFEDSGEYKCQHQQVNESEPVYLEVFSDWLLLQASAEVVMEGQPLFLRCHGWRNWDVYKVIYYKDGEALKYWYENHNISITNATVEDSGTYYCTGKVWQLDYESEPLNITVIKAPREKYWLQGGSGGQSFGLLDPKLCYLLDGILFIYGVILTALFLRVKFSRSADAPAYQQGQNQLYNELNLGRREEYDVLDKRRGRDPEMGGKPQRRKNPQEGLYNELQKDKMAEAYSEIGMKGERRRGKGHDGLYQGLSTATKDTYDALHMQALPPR
Assay: cell-based or functional assay

Chain of purified human IgE (Abcam) (P01854 other isoform, or with tags, fused parts or gaps): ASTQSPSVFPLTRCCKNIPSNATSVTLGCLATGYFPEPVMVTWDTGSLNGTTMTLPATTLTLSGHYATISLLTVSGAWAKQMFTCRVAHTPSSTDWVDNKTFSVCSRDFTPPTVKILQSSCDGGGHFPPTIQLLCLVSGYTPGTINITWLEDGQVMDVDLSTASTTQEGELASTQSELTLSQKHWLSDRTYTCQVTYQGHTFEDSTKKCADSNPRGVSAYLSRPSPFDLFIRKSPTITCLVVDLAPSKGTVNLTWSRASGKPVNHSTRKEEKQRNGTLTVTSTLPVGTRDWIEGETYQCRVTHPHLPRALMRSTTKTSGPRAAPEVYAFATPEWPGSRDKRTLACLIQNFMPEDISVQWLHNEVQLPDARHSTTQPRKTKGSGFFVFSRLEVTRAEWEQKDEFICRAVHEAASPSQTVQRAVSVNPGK

suppression of CD69 up-regulation by U266 cells, free IgE at 1.7 µg/ml: > 2 fold
suppression of CD69 up-regulation by U266 cells, free IgE at 10 µg/ml: > 4 fold
Substance: purified human IgE (Abcam) (from UniProt P01854 1-428) (antibody)
